EP2226633A1

Target: heterodimeric LIF receptor (murine gp130 and LIFRα) on transiently transfected Ba/F3 cells (mouse) (UniProt Q00560)
Experiment: cell-based or functional assay

Sequence of heterodimeric LIF receptor (murine gp130 and LIFRα) on transiently transfected Ba/F3 cells (mouse) (Q00560 23-917, chain 1 of 2): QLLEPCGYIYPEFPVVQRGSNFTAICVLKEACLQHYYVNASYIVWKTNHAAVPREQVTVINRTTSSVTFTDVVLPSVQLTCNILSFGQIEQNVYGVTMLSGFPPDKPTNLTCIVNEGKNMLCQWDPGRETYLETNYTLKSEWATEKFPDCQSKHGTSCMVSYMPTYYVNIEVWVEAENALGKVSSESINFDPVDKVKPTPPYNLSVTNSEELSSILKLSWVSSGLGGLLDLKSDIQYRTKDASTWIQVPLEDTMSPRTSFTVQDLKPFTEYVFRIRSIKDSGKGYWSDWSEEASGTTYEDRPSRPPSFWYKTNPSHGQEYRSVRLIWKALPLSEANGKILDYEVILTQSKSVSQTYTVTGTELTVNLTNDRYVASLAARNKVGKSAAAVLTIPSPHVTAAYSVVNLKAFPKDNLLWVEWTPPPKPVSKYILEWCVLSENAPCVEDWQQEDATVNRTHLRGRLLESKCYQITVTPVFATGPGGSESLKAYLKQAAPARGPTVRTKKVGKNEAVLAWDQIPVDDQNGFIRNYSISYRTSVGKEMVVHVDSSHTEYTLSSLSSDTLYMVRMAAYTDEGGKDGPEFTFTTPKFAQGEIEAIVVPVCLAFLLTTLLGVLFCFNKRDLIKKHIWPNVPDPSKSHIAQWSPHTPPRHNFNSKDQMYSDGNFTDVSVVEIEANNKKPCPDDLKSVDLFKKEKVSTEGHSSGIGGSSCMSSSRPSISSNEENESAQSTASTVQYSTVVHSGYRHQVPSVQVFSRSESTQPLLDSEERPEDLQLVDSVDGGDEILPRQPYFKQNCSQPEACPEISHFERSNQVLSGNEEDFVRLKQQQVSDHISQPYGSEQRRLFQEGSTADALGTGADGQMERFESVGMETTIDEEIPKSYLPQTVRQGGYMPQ
Sequence of heterodimeric LIF receptor (murine gp130 and LIFRα) on transiently transfected Ba/F3 cells (mouse) (P42703 44-1092, chain 2 of 2, further chain): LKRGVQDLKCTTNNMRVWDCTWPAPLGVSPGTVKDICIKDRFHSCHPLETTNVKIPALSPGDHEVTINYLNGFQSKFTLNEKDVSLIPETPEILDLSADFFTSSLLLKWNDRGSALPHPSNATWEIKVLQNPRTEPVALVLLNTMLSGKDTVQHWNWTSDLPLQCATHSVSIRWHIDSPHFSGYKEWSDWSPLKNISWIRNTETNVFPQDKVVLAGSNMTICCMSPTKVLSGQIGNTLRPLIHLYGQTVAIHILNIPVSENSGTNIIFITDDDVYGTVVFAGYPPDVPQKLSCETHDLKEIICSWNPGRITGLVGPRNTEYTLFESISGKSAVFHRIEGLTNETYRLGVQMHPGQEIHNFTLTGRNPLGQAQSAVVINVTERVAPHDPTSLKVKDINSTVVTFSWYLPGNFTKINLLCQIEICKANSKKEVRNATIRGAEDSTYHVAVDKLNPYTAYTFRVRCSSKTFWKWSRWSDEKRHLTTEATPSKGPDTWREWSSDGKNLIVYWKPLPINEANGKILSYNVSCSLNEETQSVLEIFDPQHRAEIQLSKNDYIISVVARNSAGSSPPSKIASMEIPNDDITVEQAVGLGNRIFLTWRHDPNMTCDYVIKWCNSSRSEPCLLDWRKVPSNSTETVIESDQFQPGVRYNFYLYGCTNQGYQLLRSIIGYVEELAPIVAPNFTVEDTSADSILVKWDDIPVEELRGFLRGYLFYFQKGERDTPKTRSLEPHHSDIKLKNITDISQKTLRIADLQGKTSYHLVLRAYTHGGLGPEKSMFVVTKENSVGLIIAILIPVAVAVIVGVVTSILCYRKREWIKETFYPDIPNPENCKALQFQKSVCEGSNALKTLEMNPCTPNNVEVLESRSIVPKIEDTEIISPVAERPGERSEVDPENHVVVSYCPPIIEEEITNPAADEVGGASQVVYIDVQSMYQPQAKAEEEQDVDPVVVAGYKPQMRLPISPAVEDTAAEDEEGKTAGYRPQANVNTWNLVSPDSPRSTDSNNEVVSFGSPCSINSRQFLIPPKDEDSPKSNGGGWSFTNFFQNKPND

- suppression of proliferation of M1 cells (MTT assay, 72 h, 15 nM hS3): 10%
Substance: human EPO splice variant hS3 (complete loss of exon 3) with C-terminal V5/His tag, produced in HEK293 cells (from UniProt P01588 28-193) (ligand)
